Data from patent US20050043235A1 (LICENTIA, published 2005).

Experiments:
VEGFR-1-Ig = target: T1, VEGFR-1-Ig (UniProt P17948 27-553); assay: precipitation of 35S-labelled protein with VEGFR-1-Ig, SDS-PAGE (FIG. 5B)
T1 construct: not shown: Ig part of the fusion, not described

neuropilin-1-Ig = target: T2, neuropilin-1-Ig (UniProt O14786 22-856); assay: precipitation of 35S-labelled protein with neuropilin-1-Ig, SDS-PAGE (FIG. 5A)
T2 construct: also called NP1; NP-1; not shown: Ig part of the fusion, not described
T2 sequence (looked up): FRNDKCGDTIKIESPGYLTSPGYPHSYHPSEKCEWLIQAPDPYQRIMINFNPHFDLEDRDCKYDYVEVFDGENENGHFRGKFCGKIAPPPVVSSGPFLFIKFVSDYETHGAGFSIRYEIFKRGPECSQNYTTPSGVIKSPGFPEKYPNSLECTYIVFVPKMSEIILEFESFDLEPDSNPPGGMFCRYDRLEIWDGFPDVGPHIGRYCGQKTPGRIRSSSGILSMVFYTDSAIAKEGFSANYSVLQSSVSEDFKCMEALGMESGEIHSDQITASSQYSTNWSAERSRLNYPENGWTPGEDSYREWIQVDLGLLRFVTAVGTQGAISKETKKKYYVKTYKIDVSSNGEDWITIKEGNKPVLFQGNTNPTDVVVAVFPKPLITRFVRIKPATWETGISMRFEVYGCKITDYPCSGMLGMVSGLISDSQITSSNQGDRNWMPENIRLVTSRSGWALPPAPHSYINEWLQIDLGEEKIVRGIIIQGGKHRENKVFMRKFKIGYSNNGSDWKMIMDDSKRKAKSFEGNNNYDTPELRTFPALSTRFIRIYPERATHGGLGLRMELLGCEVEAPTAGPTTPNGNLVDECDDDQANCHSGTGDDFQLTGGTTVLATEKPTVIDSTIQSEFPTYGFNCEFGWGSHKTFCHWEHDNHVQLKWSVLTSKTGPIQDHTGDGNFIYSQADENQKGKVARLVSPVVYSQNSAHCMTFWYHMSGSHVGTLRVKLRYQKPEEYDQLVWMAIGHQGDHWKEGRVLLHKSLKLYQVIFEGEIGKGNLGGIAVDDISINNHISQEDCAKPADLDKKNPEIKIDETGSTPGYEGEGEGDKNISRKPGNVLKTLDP

T1 sequence (P17948 27-553): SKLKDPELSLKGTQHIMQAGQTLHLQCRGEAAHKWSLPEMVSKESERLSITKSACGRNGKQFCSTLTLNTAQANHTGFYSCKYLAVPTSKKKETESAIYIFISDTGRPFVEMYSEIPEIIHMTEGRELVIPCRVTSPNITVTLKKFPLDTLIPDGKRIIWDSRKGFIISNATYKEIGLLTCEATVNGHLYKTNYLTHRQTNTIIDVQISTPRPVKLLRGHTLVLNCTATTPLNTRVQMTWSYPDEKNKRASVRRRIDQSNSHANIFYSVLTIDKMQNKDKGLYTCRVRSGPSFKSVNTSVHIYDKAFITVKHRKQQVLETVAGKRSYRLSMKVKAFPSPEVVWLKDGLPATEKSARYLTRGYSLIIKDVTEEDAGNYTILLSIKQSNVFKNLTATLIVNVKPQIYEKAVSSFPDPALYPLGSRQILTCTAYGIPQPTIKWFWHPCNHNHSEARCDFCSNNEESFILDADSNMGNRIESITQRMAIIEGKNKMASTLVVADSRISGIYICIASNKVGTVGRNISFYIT

B1: CA89, chimeric protein of the VEGF homology domain of VEGF-C and VEGF exon 6-8 encoded sequences (ligand)
chain: TEETIKFAAAHYNTEILKSIDNEWRKTQCMPREVCIDVGKEFGVATNTFFKPPCVSVYRCGGCCNSEGLQCMNTSTSYLSKTLFEITVPLSQGPKPVTISFANHTSCRCMSKLDVYRQVHSIIRRKSVRGKGKGQKRKRKKSRYKSWSVPCGPCSERRKHLFVQDPQTCKCSCKNTDSRCKARQLELNERTCRCDKPRR
notes: CA89 is released only with heparin in the medium; also called pEBS7/CA89; pREP7/CA89
binding result (VEGFR-1-Ig): no binding

B2: CA65, chimeric protein of the VEGF homology domain of VEGF-C and VEGF exon 7-8 encoded sequences (ligand)
chain: TEETIKFAAAHYNTEILKSIDNEWRKTQCMPREVCIDVGKEFGVATNTFFKPPCVSVYRCGGCCNSEGLQCMNTSTSYLSKTLFEITVPLSQGPKPVTISFANHTSCRCMSKLDVYRQVHSIIRRPCGPCSERRKHLFVQDPQTCKCSCKNTDSRCKARQLELNERTCRCDKPRR
notes: Exon 7-8 is used here; also called pEBS7/CA65; pREP7/CA65
binding result (VEGFR-1-Ig): no binding

B3: VEGF-CΔNΔC (ligand)
chain: TEETIKFAAAHYNTEILKSIDNEWRKTQCMPREVCIDVGKEFGVATNTFFKPPCVSVYRCGGCCNSEGLQCMNTSTSYLSKTLFEITVPLSQGPKPVTISFANHTSCRCMSKLDVYRQVHSIIRR
notes: also called N C; VEGF-C short form
binding result (VEGFR-1-Ig): no binding
binding result (neuropilin-1-Ig): no binding
